The text below walks through data of the supplement of paper PMC9170038.

This series concerns MS2 coat protein. Kind of series: apparent KD of MS2 coat protein; designed switch direction (-1 OFF switch, 1 ON switch): 1; higher = weaker reporter binding. An outline of the steps: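 The reported apparent KD is a per-design median over clusters, from curve fits of normalised cluster fluorescence. Protein titrations used SNAP-549-labelled MS2 coat protein, doubled from 0.7 or 1.5 nM to 3 µM, in Tris-HCl pH 7.5 buffer with KCl, MgCl2, BSA, DTT, tRNA and Tween-20, with no input, 200 uM small-molecule ligand, or an oligonucleotide input. The RNA switches were transcribed on Illumina chips by stalled E. coli RNA polymerase.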

Where [1] appears, read: input ligand: microRNA oligo, concentration not stated.
The mark [2] stands for this setting: Eterna round: R95, input ligand: FMN 200 uM.
Setting [3] is: Eterna round: R95, input ligand: microRNA oligo, concentration not stated.
The mark [4] stands for this setting: Eterna round: R95, input ligand: none.

For “UCUCUUAUCGUAGGAUAUGUAGGAUAUGUACAUGAGGAUCACCCAUGUCUACCAGAGACAGAAGGACAGAAGGACGAACCACUC [pwkr ssNG2 2FMN 1F5s.4] (Eterna round: R96, puzzle: Same State NG 2)”, the “apparent KD of MS2 coat protein” value (input ligand: FMN 200 uM) amounted to 43.4 nM, the “apparent KD of MS2 coat protein” value under setting [1] was determined as 51.7 nM and the “apparent KD of MS2 coat protein” value (input ligand: none) amounted to 80.7 nM.

As for “UCUUGGUUUUUGCUCGUUUUUUGUGUUGAACAUGAGGAUCACCCAUGUAUUAUACGAUCCGGUUUAAUAAUAAUCCG [JMF 80] (puzzle: Sensor for hsa-mir-208a)”, the “apparent KD of MS2 coat protein” value reads like this: under setting [2], 23.7 nM; under setting [3], 16.1 nM; under setting [4], 27.2 nM.

Take “UCUUGGUUUUUGCUCGUUUUUUGUGUUGAACAUGAGGAUCACCCAUGUAUUGUACAAUCCGGUUUGAUGAUGGUCCG [JMF 52] (puzzle: Sensor for hsa-mir-208a)”: the “apparent KD of MS2 coat protein” value is, setting by setting: under setting [2], 57.2 nM; under setting [3], 44.5 nM; under setting [4], 54.1 nM.

As to “UCUUGGUUUUUGCUCGUUUUUUGUGUUGAACAUGAGGAUCACCCAUGUAUUGUACAGUCCAAUUUAAUAAUGGUCCG [JMF 53] (puzzle: Sensor for hsa-mir-208a)”, the “apparent KD of MS2 coat protein” value amounted to 34.2 nM under setting [2], 25.4 nM under setting [3] and 46.7 nM under setting [4].

As to “UCUUGGUUUUUGCUCGUUUUUUGUGUUGAACAUGAGGAUCACCCAUGUAUUGUACAGUCCGGUUUGAUGAUGGUCCG [JMF 59] (puzzle: Sensor for hsa-mir-208a)”, the “apparent KD of MS2 coat protein” value reads like this: under setting [2], 32.1 nM; under setting [3], 25.6 nM; under setting [4], 33.4 nM.

Consider “UCUUGGUUUUUGCUCGUUUUUUGUGUUGAACAUGAGGAUCACCCAUGUAUUGUACGGUCCAAUUUAAUGAUGGUCCA [JMF 36] (puzzle: Sensor for hsa-mir-208a)”, for which the “apparent KD of MS2 coat protein” value under setting [2] was found to be 30.8 nM, the “apparent KD of MS2 coat protein” value under setting [3] worked out at 17.8 nM and the “apparent KD of MS2 coat protein” value under setting [4] amounted to 32.4 nM.

Take “UCUUGGUUUUUGCUCGUUUUUUGUGUUGAACAUGAGGAUCACCCAUGUAUUGUACGGUCCAGUUUAAUAAUGGUCCG [JMF 30] (puzzle: Sensor for hsa-mir-208a)”: the “apparent KD of MS2 coat protein” value under setting [2] was found to be 23.4 nM, the “apparent KD of MS2 coat protein” value under setting [3] came out at 14 nM and the “apparent KD of MS2 coat protein” value under setting [4] is 25 nM.

Consider “UCUUGGUUUUUGCUCGUUUUUUGUGUUGAACAUGAGGAUCACCCAUGUAUUGUACGGUCCAGUUUAGUGGUAGUCCG [JMF 70] (puzzle: Sensor for hsa-mir-208a)”, for which the “apparent KD of MS2 coat protein” value is, setting by setting: under setting [2], 34.6 nM; under setting [3], 21.5 nM; under setting [4], 36.4 nM.

On to “UCUUGGUUUUUGCUCGUUUUUUGUGUUGAACAUGAGGAUCACCCAUGUAUUGUACGGUCCGAUUUGAUAAUGGUCCA [JMF 41] (puzzle: Sensor for hsa-mir-208a)”, for which the “apparent KD of MS2 coat protein” value reads like this: under setting [2], 36.3 nM; under setting [3], 19.2 nM; under setting [4], 37.4 nM.

With “UCUUGGUUUUUGCUCGUUUUUUGUGUUGAACAUGAGGAUCACCCAUGUAUUGUACGGUCCGAUUUGAUAAUGGUCCG [JMF 21] (puzzle: Sensor for hsa-mir-208a)”, the “apparent KD of MS2 coat protein” value reads like this: under setting [2], 25.8 nM; under setting [3], 14.8 nM; under setting [4], 27 nM.

“UCUUGGUUUUUGCUCGUUUUUUGUGUUGAACAUGAGGAUCACCCAUGUAUUGUACGGUCCGGUUUAGUAGUGGUCCA [JMF 44] (Eterna round: R96, puzzle: Sensor for hsa-mir-208a)”: the “apparent KD of MS2 coat protein” value is 181 nM (input ligand: FMN 200 uM), 81.8 nM under setting [1] and 173 nM (input ligand: none).

As to “UCUUGGUUUUUGCUCGUUUUUUGUGUUGAACAUGAGGAUCACCCAUGUAUUGUACGGUCCGGUUUAGUAGUGGUCCA [JMF 44] (puzzle: Sensor for hsa-mir-208a)”, the “apparent KD of MS2 coat protein” value under setting [2] turned out to be 118 nM, the “apparent KD of MS2 coat protein” value under setting [3] was found to be 92.8 nM and the “apparent KD of MS2 coat protein” value under setting [4] turned out to be 144 nM.

With “UGAACCUUCACAGGAUAUCAUGCGAAAAUUGCGUGAGAAGGGUGGAUGUGGCGUUCAAAGAUGCACAUGAGGAUCACCCAUGUA [SameState NG1 #49] (Eterna round: R96, puzzle: Same State NG 1)”, the “apparent KD of MS2 coat protein” value by setting is: (input ligand: FMN 200 uM) 162 nM; under setting [1], 113 nM; (input ligand: none) 191 nM.

Turning to “UGAAUAAUGAUAGGAUAUACAUGAGGAAUCCUCGUAGAAGGAUCAUGACAUGAGGAUCACCCAUGUAGCGCUCAGAAGAGCGCA [Mat - Same State NG 1 - JL mod - D51] (Eterna round: R96, puzzle: Same State NG 1)”, the “apparent KD of MS2 coat protein” value is, setting by setting: (input ligand: FMN 200 uM) 160 nM; under setting [1], 76.7 nM; (input ligand: none) 191 nM.

For “UGAAUAGUGAUAGGAUAUACAUGAGGAAUCCUCGUAGAAGGAUCACGACAUGAGGAUCACCCAUGUAGCCGUCGAAAGACGGCA [Mat - Same State NG 1 - JL mod - D61] (Eterna round: R96, puzzle: Same State NG 1)”, the “apparent KD of MS2 coat protein” value by setting is: (input ligand: FMN 200 uM) 924 nM; under setting [1], 86.1 nM; (input ligand: none) 192 nM.

On to “UGAAUAGUGAUAGGAUAUACAUGAGGAAUCCUCGUAGAAGGAUCAUAACAUGAGGAUCACCCAUGUAGCCGUCAGAAGACGGCA [Mat - Same State NG 1 - JL mod - D57] (Eterna round: R96, puzzle: Same State NG 1)”, for which the “apparent KD of MS2 coat protein” value amounted to 94.6 nM (input ligand: FMN 200 uM), 284 nM under setting [1] and 178 nM (input ligand: none).

Turning to “UGAAUAGUUACAGGAUAUCAUGCGAAAAUUGCGUGAGAAGGGUGGGUGUUGUGCUCAAAGUGCUACAUGAGGAUCACCCAUGUU [SameState NG1 #40] (Eterna round: R96, puzzle: Same State NG 1)”, the “apparent KD of MS2 coat protein” value came to 1720 nM (input ligand: FMN 200 uM), 99.3 nM under setting [1] and 497 nM (input ligand: none).

As to “UGAAUAGUUACAGGAUAUGAGCCGAAAAUUGGGUCAGAAGGGUGGGUGUUGUGCGCUAUGUGCUACAUGAGGAUCACCCAUGUU [SameState NG1 #35] (Eterna round: R96, puzzle: Same State NG 1)”, the “apparent KD of MS2 coat protein” value was 1210 nM (input ligand: FMN 200 uM), 23.3 nM under setting [1] and 208 nM (input ligand: none).

Take “UGAAUAGUUACAGGAUAUGAGCCGUAAAUUGGGUCAGAAGGGUGGGUGUUUUGCGCUGUGUGUUACAUGAGGAUCACCCAUGUU [SameState NG1 #32] (Eterna round: R96, puzzle: Same State NG 1)”: the “apparent KD of MS2 coat protein” value runs as follows: (input ligand: FMN 200 uM) 206 nM; under setting [1], 86.7 nM; (input ligand: none) 137 nM.

With “UGACACACGGCAGGAUAUCGAUAGCAAAGCUAUCGAGAAGGGCCUCAUGUCGUGGAAACGUGACAUGAGGAUCACCCAUGUUGC [Omei SS(NG)1 Cv11] (Eterna round: R96, puzzle: Same State NG 1)”, the “apparent KD of MS2 coat protein” value runs as follows: (input ligand: FMN 200 uM) 280 nM; under setting [1], 8.42 nM; (input ligand: none) 51.4 nM.
